Values quoted from earlier work in patent US20200069786A1, “COMPOSITION AND PROCESS FOR PREPARING VACCINE” (TREOS BIO ZRT., priority 2018, published 2020).
Read-outs that look alike come from different tables or passages of the source.

Tested on: TSA
[1] = TSA expression rate in Esophageal
[2] = TSA expression rate in GASTRIC cancer
[3] = TSA expression rate in HEAD and NECK
[4] = TSA expression rate in BLADDER cancer
[5] = TSA expression rate in LUNG cancer
[6] = TSA expression rate in MELANOMA
[7] = TSA expression rate in PROSTATE cancer
[8] = TSA expression rate in LEUKEMIAS

Row | Molecule | TSA Expression Rate (ER) (BRAIN) [%] | TSA Expression Rate (ER) (BREAST) [%] | TSA Expression Rate (ER) (HCC) [%] | TSA Expression Rate (ER) (LUNG) [%] | TSA Expression Rate (ER) (OVARIAN) [%] | Expression Rate (ER) % (TSA expression rate in CRC) [%] | Expression Rate (ER) % [1] [%] | Expression Rate (ER) % [2] [%] | Expression Rate (ER) % [3] [%] | TSA Expression Rate (ER) (THYROID) [%] | Expression Rate (ER) % [4] [%] | Expression Rate (ER) % (TSA expression rate in Kidney) [%] | Expression Rate (ER) % [5] [%] | Expression Rate (ER) % [6] [%] | Expression Rate (ER) % [7] [%] | Expression Rate (ER) % [8] [%]
1 | MAGE-B6 (protein, UniProt Q8N7X4 1-407, looked up) Melanoma-associated antigen B6: MPRGHKSKLRTCEKRQETNGQPQGLTGPQATAEKQEESHSSSSSSRACLGDCRRSSDASIPQESQGVSPTGSPDAVVSYSKSDVAANGQDEKSPSTSRDASVPQESQGASPTGSPDAGVSGSKYDVAANGQDEKSPSTSHDVSVPQESQGASPTGSPDAGVSGSKYDVAAEGEDEESVSASQKAIIFKRLSKDAVKKKACTLAQFLQKKFEKKESILKADMLKCVRREYKPYFPQILNRTSQHLVVAFGVELKEMDSSGESYTLVSKLGLPSEGILSGDNALPKSGLLMSLLVVIFMNGNCATEEEVWEFLGLLGIYDGILHSIYGDARKIITEDLVQDKYVVYRQVCNSDPPCYEFLWGPRAYAETTKMRVLRVLADSSNTSPGLYPHLYEDALIDEVERALRLRA | 6 |  |  |  |  |  |  |  |  |  |  |  |  |  |  | 
2 | TRAG-3 (protein, UniProt Q9Y5P2 1-127, looked up) Chondrosarcoma-associated …: MWMGLIQLVEGVKRKDQGFLEKEFYHKTNIKMRCEFLACWPAFTVLGEAWRDQVDWSRLLRDAGLVKMSRKPRASSPLSNNHPPTPKRRGSGRHPLNPGPEALSKFPRQPGREKGPIKEVPGTKGSP | 0 | 10 | 26 | 54 | 83 | 7 | 55 | 10 |  |  |  |  |  |  |  | 
3 | TPTE (protein, UniProt P56180 1-551, looked up) Putative tyrosine-protein …: MNESPDPTDLAGVIIELGPNDSPQTSEFKGATEEAPAKESPHTSEFKGAARVSPISESVLARLSKFEVEDAENVASYDSKIKKIVHSIVSSFAFGLFGVFLVLLDVTLILADLIFTDSKLYIPLEYRSISLAIALFFLMDVLLRVFVERRQQYFSDLFNILDTAIIVILLLVDVVYIFFDIKLLRNIPRWTHLLRLLRLIILLRIFHLFHQKRQLEKLIRRRVSENKRRYTRDGFDLDLTYVTERIIAMSFPSSGRQSFYRNPIKEVVRFLDKKHRNHYRVYNLCSERAYDPKHFHNRVVRIMIDDHNVPTLHQMVVFTKEVNEWMAQDLENIVAIHCKGGTDRTGTMVCAFLIASEICSTAKESLYYFGERRTDKTHSEKFQGVKTPSQKRYVAYFAQVKHLYNWNLPPRRILFIKHFIIYSIPRYVRDLKIQIEMEKKVVFSTISLGKCSVLDNITTDKILIDVFDGLPLYDDVKVQFFYSNLPTYYDNCSFYFWLHTSFIENNRLYLPKNELDNLHKQKARRIYPSDFAVEILFGEKMTSSDVVAGSD | 0 |  | 39 | 36 |  | 4 |  | 0 | 0 |  |  |  |  |  |  | 
4 | SAGE1 (protein, UniProt Q9NXZ1 1-904, looked up) Sarcoma antigen 1: MQASPLQTSQPTPPEELHAAAYVFTNDGQQMRSDEVNLVATGHQSKKKHSRKSKRHSSSKRRKSMSSWLDKQEDAAVTHSICEERINNGQPVADNVLSTAPPWPDATIAHNIREERMENGQSRTDKVLSTAPPQLVHMAAAGIPSMSTRDLHSTVTHNIREERMENGQPQPDNVLSTGPTGLINMAATPIPAMSARDLYATVTHNVCEQKMENVQPAPDNVLLTLRPRRINMTDTGISPMSTRDPYATITYNVPEEKMEKGQPQPDNILSTASTGLINVAGAGTPAISTNGLYSTVPHNVCEEKMENDQPQPNNVLSTVQPVIIYLTATGIPGMNTRDQYATITHNVCEERVVNNQPLPSNALSTVLPGLAYLATADMPAMSTRDQHATIIHNLREEKKDNSQPTPDNVLSAVTPELINLAGAGIPPMSTRDQYATVNHHVHEARMENGQRKQDNVLSNVLSGLINMAGASIPAMSSRDLYATITHSVREEKMESGKPQTDKVISNDAPQLGHMAAGGIPSMSTKDLYATVTQNVHEERMENNQPQPSYDLSTVLPGLTYLTVAGIPAMSTRDQYATVTHNVHEEKIKNGQAASDNVFSTVPPAFINMAATGVSSMSTRDQYAAVTHNIREEKINNSQPAPGNILSTAPPWLRHMAAAGISSTITRDLYVTATHSVHEEKMTNGQQAPDNSLSTVPPGCINLSGAGISCRSTRDLYATVIHDIQEEEMENDQTPPDGFLSNSDSPELINMTGHCMPPNALDSFSHDFTSLSKDELLYKPDSNEFAVGTKNYSVSAGDPPVTVMSLVETVPNTPQISPAMAKKINDDIKYQLMKEVRRFGQNYERIFILLEEVQGSMKVKRQFVEFTIKEAARFKKVVLIQQLEKALKEIDSHCHLRKVKHMRKR | 0 | 2 |  |  |  |  | 22 | 8 | 17 | 0 | 12 | 5 | 15 | 5 |  | 
5 | MART1 (protein, UniProt Q16655 1-118, looked up) Melanoma antigen recognized …: MPREDAHFIYGYPKKGHGHSYTTAEEAAGIGILTVILGVLLLIGCWYCRRRNGYRALMDKSLHVGTQCALTRRCPQEGFDHRDSKVSLQEKNCEPVVPNAPPAYEKLSAEQSPPPYSP | 0 |  |  |  |  |  |  |  |  | 0 |  |  |  | 89 |  | 
6 | ATAD2 (protein, UniProt Q6PL18 1-1390, looked up) ATPase family AAA …: MVVLRSSLELHNHSAASATGSLDLSSDFLSLEHIGRRRLRSAGAAQKKPAATTAKAGDGSSVKEVETYHRTRALRSLRKDAQNSSDSSFEKNVEITEQLANGRHFTRQLARQQADKKKEEHREDKVIPVTRSLRARNIVQSTEHLHEDNGDVEVRRSCRIRSRYSGVNQSMLFDKLITNTAEAVLQKMDDMKKMRRQRMRELEDLGVFNETEESNLNMYTRGKQKDIQRTDEETTDNQEGSVESSEEGEDQEHEDDGEDEDDEDDDDDDDDDDDDDDEDDEDEEDGEEENQKRYYLRQRKATVYYQAPLEKPRHQRKPNIFYSGPASPARPRYRLSSAGPRSPYCKRMNRRRHAIHSSDSTSSSSSEDEQHFERRRKRSRNRAINRCLPLNFRKDELKGIYKDRMKIGASLADVDPMQLDSSVRFDSVGGLSNHIAALKEMVVFPLLYPEVFEKFKIQPPRGCLFYGPPGTGKTLVARALANECSQGDKRVAFFMRKGADCLSKWVGESERQLRLLFDQAYQMRPSIIFFDEIDGLAPVRSSRQDQIHSSIVSTLLALMDGLDSRGEIVVIGATNRLDSIDPALRRPGRFDREFLFSLPDKEARKEILKIHTRDWNPKPLDTFLEELAENCVGYCGADIKSICAEAALCALRRRYPQIYTTSEKLQLDLSSINISAKDFEVAMQKMIPASQRAVTSPGQALSTVVKPLLQNTVDKILEALQRVFPHAEFRTNKTLDSDISCPLLESDLAYSDDDVPSVYENGLSQKSSHKAKDNFNFLHLNRNACYQPMSFRPRILIVGEPGFGQGSHLAPAVIHALEKFTVYTLDIPVLFGVSTTSPEETCAQVIREAKRTAPSIVYVPHIHVWWEIVGPTLKATFTTLLQNIPSFAPVLLLATSDKPHSALPEEVQELFIRDYGEIFNVQLPDKEERTKFFEDLILKQAAKPPISKKKAVLQALEVLPVAPPPEPRSLTAEEVKRLEEQEEDTFRELRIFLRNVTHRLAIDKRFRVFTKPVDPDEVPDYVTVIKQPMDLSSVISKIDLHKYLTVKDYLRDIDLICSNALEYNPDRDPGDRLIRHRACALRDTAYAIIKEELDEDFEQLCEEIQESRKKRGCSSSKYAPSYYHVMPKQNSTLVGDKRSDPEQNEKLKTPSTPVACSTPAQLKRKIRKKSNWYLGTIKKRRKISQAKDDSQNAIDHKIESDTEETQDTSVDHNETGNTGESSVEENEKQQNASESKLELRNNSNTCNIENELEDSRKTTACTELRDKIACNGDASSSQIIHISDENEGKEMCVLRMTRARRSQVEQQQLITVEKALAILSQPTPSLVVDHERLKNLLKTVVKKSQNYNIFQLENLYAVISQCIYRHRKDHDKTSLIQKMEQEVENFSCSR |  | 52 |  | 23 |  | 58 |  | 43 |  |  |  |  |  | 0 | 0 | 
7 | MAGE-B4 (protein, UniProt O15481 1-346, looked up) Melanoma-associated antigen B4: MPRGQKSKLRAREKRQRTRGQTQDLKVGQPTAAEKEESPSSSSSVLRDTASSSLAFGIPQEPQREPPTTSAAAAMSCTGSDKGDESQDEENASSSQASTSTERSLKDSLTRKTKMLVQFLLYKYKMKEPTTKAEMLKIISKKYKEHFPEIFRKVSQRTELVFGLALKEVNPTTHSYILVSMLGPNDGNQSSAWTLPRNGLLMPLLSVIFLNGNCAREEEIWEFLNMLGIYDGKRHLIFGEPRKLITQDLVQEKYLEYQQVPNSDPPRYQFLWGPRAHAETSKMKVLEFLAKVNDTTPNNFPLLYEEALRDEEERAGARPRVAARRGTTAMTSAYSRATSSSSSQPM | 0 |  |  |  |  |  |  |  |  |  |  |  | 0 |  |  | 3
8 | MAGE-B2 (protein, UniProt O15479 1-319, looked up) Melanoma-associated antigen B2: MPRGQKSKLRAREKRRKARDETRGLNVPQVTEAEEEEAPCCSSSVSGGAASSSPAAGIPQEPQRAPTTAAAAAAGVSSTKSKKGAKSHQGEKNASSSQASTSTKSPSEDPLTRKSGSLVQFLLYKYKIKKSVTKGEMLKIVGKRFREHFPEILKKASEGLSVVFGLELNKVNPNGHTYTFIDKVDLTDEESLLSSWDFPRRKLLMPLLGVIFLNGNSATEEEIWEFLNMLGVYDGEEHSVFGEPWKLITKDLVQEKYLEYKQVPSSDPPRFQFLWGPRAYAETSKMKVLEFLAKVNGTTPCAFPTHYEEALKDEEKAGV | 0 |  | 61 | 43 |  | 0 |  | 0 | 45 |  | 0 | 0 |  | 22 | 0 | 
9 | MAGE-B1 (protein, UniProt P43366 1-347, looked up) Melanoma-associated antigen B1: MPRGQKSKLRAREKRRKAREETQGLKVAHATAAEKEECPSSSPVLGDTPTSSPAAGIPQKPQGAPPTTTAAAAVSCTESDEGAKCQGEENASFSQATTSTESSVKDPVAWEAGMLMHFILRKYKMREPIMKADMLKVVDEKYKDHFTEILNGASRRLELVFGLDLKEDNPSGHTYTLVSKLNLTNDGNLSNDWDFPRNGLLMPLLGVIFLKGNSATEEEIWKFMNVLGAYDGEEHLIYGEPRKFITQDLVQEKYLKYEQVPNSDPPRYQFLWGPRAYAETTKMKVLEFLAKMNGATPRDFPSHYEEALRDEEERAQVRSSVRARRRTTATTFRARSRAPFSRSSHPM | 0 |  | 47 |  |  | 0 |  |  |  |  | 0 | 0 | 13 | 19 | 0 | 5
